Assay results: patent US20140072613A1 (published 2014)

T1: PKG1β(h) (human, UniProt Q13976-2 1-686)
T1 sequence (looked up): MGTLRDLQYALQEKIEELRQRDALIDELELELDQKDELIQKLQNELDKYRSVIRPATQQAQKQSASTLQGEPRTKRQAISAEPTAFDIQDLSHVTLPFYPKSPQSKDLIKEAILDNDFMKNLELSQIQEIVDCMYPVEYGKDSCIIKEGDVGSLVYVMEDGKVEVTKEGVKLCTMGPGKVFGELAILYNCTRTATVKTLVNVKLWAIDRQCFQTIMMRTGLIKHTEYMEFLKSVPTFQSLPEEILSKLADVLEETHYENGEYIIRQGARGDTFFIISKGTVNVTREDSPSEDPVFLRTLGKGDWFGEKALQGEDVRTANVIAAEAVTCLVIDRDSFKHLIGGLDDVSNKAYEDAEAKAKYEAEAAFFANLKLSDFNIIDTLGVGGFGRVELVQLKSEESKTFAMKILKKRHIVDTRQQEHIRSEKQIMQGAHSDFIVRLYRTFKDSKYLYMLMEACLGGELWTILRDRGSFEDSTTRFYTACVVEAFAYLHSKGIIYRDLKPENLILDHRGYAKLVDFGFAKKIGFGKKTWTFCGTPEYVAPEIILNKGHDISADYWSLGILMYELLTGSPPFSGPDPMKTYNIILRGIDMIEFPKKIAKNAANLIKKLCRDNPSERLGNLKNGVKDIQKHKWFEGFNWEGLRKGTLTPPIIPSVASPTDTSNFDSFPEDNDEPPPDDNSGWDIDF

T2: Mer(h) (human, UniProt Q12866 578-872, limits assumed)
T2 sequence (looked up): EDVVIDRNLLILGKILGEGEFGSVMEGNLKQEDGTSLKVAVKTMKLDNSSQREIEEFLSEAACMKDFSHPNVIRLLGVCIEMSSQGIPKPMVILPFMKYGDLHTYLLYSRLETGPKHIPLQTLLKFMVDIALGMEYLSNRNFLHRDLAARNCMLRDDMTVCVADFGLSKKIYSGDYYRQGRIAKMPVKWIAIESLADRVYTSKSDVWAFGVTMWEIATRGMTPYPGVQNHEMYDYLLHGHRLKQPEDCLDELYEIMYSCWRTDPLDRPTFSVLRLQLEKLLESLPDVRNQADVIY

T3: DDR2(h) (human, UniProt Q16832 422-855, limits assumed)
T3 sequence (looked up): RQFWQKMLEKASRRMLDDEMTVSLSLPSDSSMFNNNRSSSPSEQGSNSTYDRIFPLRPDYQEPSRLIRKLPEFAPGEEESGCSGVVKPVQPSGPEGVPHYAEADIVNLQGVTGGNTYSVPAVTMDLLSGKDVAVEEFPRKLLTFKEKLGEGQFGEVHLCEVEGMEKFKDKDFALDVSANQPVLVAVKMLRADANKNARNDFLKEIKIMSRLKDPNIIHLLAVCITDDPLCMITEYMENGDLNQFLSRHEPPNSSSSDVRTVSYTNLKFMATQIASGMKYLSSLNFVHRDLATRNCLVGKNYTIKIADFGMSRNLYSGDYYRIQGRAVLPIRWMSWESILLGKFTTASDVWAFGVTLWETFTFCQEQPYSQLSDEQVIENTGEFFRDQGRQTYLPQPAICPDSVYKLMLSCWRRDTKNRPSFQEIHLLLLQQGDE

T4: EphA5(h) (human, UniProt P54756 595-1037, limits assumed)
T4 sequence (looked up): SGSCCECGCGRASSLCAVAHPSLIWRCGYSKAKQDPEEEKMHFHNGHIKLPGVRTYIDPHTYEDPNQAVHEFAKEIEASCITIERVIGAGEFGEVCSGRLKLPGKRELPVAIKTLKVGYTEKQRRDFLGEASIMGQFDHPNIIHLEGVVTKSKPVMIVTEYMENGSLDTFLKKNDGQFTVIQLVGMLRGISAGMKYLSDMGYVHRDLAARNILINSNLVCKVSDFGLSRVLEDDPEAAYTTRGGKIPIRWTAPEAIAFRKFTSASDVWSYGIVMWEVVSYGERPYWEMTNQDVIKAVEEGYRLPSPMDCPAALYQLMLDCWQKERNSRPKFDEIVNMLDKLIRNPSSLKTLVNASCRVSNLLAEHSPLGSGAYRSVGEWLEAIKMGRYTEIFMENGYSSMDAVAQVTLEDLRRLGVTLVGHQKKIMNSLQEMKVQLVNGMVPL


Key:
Assay in all cases: cell-based or functional assay
[1] = target: PDGFRα(D842V)(h) (human, UniProt P16234 550-1089, limits assumed)
Sequence of PDGFRα(D842V)(h) (P16234 550-1089 D842V limits assumed): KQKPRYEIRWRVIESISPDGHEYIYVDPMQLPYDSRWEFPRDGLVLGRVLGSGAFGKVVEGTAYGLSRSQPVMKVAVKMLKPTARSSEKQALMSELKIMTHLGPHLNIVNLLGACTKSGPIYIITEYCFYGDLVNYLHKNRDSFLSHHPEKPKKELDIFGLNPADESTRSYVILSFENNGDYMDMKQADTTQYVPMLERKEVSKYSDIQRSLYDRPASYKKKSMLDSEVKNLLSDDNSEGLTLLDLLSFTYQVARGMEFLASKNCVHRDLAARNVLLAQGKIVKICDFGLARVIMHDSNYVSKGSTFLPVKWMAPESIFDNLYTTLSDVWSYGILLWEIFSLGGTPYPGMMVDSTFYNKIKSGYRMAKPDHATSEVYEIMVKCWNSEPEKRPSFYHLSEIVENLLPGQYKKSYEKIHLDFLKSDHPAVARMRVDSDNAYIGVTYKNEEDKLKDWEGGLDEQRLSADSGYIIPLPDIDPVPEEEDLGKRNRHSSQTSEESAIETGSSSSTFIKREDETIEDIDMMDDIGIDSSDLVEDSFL

[2] = target: Lck(h) activated (human, UniProt P06239 1-509)
Sequence of Lck(h) activated (P06239 whole entry): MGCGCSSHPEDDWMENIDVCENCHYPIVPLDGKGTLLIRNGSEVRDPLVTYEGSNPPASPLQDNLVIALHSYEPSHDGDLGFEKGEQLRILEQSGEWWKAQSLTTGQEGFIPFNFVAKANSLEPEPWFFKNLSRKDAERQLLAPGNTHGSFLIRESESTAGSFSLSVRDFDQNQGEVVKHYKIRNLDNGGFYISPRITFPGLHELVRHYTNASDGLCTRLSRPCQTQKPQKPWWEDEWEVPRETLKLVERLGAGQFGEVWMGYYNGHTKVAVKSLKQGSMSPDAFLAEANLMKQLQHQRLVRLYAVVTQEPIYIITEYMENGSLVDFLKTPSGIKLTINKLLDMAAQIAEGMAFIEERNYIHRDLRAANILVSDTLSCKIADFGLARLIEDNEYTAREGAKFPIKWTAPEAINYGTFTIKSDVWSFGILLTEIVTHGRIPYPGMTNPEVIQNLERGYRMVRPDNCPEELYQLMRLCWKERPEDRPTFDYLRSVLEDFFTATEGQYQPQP

[3] = target: T1, PKG1β(h)
[4] = target: T2, Mer(h)
[5] = target: PKCγ(h) (human, UniProt P05129 1-697)
[6] = target: CK1γ2(h) (human, UniProt P78368 1-415)
Sequence of CK1γ2(h) (P78368 whole entry): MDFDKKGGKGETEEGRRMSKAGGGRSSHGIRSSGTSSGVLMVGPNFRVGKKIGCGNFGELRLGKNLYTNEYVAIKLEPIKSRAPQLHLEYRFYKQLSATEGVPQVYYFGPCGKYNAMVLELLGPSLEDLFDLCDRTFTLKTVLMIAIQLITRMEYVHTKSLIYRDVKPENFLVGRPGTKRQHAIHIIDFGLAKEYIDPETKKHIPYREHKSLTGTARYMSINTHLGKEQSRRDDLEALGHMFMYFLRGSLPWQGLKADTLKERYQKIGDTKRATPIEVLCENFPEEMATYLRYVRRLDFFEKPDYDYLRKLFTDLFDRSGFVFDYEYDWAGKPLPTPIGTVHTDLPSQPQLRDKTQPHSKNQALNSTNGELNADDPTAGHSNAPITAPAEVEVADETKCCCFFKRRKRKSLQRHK

[7] = target: T3, DDR2(h)
[8] = target: PRK2(h) (human, UniProt Q16513 501-984, limits assumed)
Sequence of PRK2(h) (Q16513 501-984 limits assumed): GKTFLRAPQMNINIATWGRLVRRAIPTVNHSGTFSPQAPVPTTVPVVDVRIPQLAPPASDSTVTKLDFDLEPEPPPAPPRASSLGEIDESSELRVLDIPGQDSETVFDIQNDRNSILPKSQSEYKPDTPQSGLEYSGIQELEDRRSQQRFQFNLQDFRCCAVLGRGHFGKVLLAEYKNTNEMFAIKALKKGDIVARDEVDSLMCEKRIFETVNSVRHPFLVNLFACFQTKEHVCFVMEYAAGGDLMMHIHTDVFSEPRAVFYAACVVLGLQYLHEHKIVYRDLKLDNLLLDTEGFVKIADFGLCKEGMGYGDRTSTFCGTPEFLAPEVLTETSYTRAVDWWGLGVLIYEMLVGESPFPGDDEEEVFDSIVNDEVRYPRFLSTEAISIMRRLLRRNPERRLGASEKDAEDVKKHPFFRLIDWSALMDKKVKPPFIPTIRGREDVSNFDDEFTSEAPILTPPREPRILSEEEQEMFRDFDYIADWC

[9] = target: T4, EphA5(h)
[10] = target: MAPKAP-K2(h) (human, UniProt P49137 46-400)
Sequence of MAPKAP-K2(h) (P49137 46-400 limits assumed): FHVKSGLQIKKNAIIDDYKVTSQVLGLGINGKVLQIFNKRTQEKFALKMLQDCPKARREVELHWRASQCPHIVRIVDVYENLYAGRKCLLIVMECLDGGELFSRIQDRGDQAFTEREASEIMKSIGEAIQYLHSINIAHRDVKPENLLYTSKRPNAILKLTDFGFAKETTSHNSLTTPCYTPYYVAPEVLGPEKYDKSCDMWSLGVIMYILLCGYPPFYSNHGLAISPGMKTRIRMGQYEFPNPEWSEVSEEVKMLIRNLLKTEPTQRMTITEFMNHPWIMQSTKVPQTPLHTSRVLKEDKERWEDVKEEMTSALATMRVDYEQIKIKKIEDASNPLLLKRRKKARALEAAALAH

[11] = target: MAPKAP-K3(h) (human, UniProt Q16644 1-382, limits assumed)
Sequence of MAPKAP-K3(h) (Q16644 whole entry): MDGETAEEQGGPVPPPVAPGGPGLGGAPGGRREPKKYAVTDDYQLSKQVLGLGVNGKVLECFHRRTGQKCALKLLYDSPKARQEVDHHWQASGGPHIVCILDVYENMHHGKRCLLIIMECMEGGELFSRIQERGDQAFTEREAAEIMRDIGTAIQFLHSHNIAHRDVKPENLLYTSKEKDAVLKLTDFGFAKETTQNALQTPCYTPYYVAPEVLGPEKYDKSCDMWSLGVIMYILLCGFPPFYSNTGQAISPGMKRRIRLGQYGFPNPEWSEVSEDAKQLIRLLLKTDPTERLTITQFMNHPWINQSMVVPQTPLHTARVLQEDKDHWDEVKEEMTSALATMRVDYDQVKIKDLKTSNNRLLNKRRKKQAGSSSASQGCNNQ

[12] = target: TrkB(h) (human, UniProt Q16620 455-822, limits assumed)
Sequence of TrkB(h) (Q16620 455-822 limits assumed): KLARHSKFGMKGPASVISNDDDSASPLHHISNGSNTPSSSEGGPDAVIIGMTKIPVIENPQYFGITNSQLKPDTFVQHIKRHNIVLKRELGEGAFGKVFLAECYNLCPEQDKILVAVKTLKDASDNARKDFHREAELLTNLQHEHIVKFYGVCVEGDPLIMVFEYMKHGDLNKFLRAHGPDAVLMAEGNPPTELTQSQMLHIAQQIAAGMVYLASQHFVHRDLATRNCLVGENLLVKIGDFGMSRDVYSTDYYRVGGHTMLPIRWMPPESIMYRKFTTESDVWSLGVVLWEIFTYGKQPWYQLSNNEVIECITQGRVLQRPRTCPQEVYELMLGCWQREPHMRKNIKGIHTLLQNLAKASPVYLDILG

[13] = target: CaMKI(h) (human, UniProt Q14012 1-370)
Sequence of CaMKI(h) (Q14012 whole entry): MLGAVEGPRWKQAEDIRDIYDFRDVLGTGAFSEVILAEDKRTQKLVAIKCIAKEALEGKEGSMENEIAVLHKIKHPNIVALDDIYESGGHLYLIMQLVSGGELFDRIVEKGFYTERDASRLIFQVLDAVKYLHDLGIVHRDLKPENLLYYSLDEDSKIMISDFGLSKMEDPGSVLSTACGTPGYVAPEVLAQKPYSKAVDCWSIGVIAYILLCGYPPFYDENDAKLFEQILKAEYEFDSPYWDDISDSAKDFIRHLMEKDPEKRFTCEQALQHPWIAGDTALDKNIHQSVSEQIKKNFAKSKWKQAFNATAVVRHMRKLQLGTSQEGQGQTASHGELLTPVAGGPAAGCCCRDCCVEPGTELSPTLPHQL

| Binder | % activity, 100 µM [1] | % activity, 100 µM [2] | % activity, 100 µM [3] | % activity, 100 µM [4] | % activity, 100 µM [5] | % activity, 100 µM [6] | % activity, 100 µM [7] | % activity, 100 µM [8] | % activity, 100 µM [9] | inhibition of kinase activity at 100 µM [10] | inhibition of kinase activity at 100 µM [11] | inhibition of kinase activity at 100 µM [12] | inhibition of kinase activity at 100 µM [13] |
| --- | --- | --- | --- | --- | --- | --- | --- | --- | --- | --- | --- | --- | --- |
| FAKLAARLYRKALARQLGVAA [MMI-0300] | 114% | 243% | 50% | 52% | 89% | 123% | 94% | 33% | 18% | > 65% | > 65% | > 65% | > 65% |
| KAFAKLAARLYRKALARQLGVAA [MMI-0400] | 118% | 216% | 53% | 50% | 79% | 114% | 95% | 27% | 24% | > 65% | > 65% | > 65% | > 65% |
